The target of assay [1] is T1, FcγRIIa H (human, UniProt P12318 34-217).
T1 construct: extracellular domain; also called FcγRIIa type H; 2aH
T1 sequence (looked up): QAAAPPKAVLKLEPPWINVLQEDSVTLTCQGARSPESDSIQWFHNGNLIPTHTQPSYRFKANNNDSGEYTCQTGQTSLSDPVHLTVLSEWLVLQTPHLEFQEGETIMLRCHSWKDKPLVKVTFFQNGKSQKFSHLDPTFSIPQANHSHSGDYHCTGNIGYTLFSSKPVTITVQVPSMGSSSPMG
The assay is described as follows: SPR; He/Con_2aH divided by He/Con_2b (FcγRIIb). The method, then:
The heterodimerized antibodies He Abs in which one of the H chains was introduced with an alteration were assayed for their binding activities to each activating FcγR and inhibitory FcγR according to the method described in Example 4. […] The activating FcγRs in FIGS. 26, 27, 28, and 29 are FcγRIa, FcγRIIa (R), FcγRIIa (H), and FcγRIIIa, respectively.
Analysis of interaction between objective antibody and the FcγR was carried out using Biacore T100 (GE Healthcare). HBS-EP+ (GE Healthcare) was used as the running buffer, and the measurement temperature was set to 25° C. Chips produced by immobilizing the antigen peptide by the amine coupling method to a Series S Sencor Chip CM5 (GE Healthcare), or alternatively, chips produced by allowing preliminarily biotinylated antigen peptides to interact with and immobilize onto a Series S Sensor Chip SA (certified) (GE Healthcare) were used. Antibodies of interest were captured onto an antigen peptide-immobilized chip, and allowed to interact to each FcγR diluted with running buffer. To regenerate and repeatedly use the chip, the antibodies captured on the chip were washed off by reacting 10 mM glycine-HCl, pH 1.5.

In another assay the target is T2, FcγRIIb (human, UniProt P31994 43-217).
T2 construct: extracellular domain; also called 2b
T2 sequence (looked up): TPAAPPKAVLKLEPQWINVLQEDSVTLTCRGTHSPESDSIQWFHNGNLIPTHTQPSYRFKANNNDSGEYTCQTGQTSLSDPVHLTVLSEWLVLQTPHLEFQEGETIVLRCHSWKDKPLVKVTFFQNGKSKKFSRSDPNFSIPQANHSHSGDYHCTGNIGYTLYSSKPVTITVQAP
The assay is described as follows: SPR (Biacore), relative binding vs GpH7-A5/GpH7-B3/GpL16-k0.

Assay [2] has as its target T1, FcγRIIa H. Described as above.

B1: GpH7-A5/GpH7-B3 variant S267_19Q/GpL16-k0 (antibody, human IgG1, kappa)
heavy 1: not shown
heavy 2: not shown
light: DIVMTQSPLSLPVTPGEPASISCQASESLVHSNRNTYLHWYLQKPGQSPQLLIYKVSNRFSGVPDRFSGSGSGTDFTLKISRVEAEDVGVYYCSQNTHVPPTFGQGTKVEIERTVAAPSVFIFPPSDEQLKSGTASVVCLLNNFYPREAKVQWKVDNALQSGNSQESVTEQDSKDSTYSLSSTLTLSKADYEKHKVYACEVTHQGLSSPVTKSFNRGEC
notes: heterodimerized IgG1, mutation in one H chain only; also called He Ab
With B1, the “He_2aH/2b (IIaH/IIb)” value with FcγRIIa H [1] came to 0.28 ratio. Further, in the assay with FcγRIIb, the He/Con_2b was 218 % of control He Ab (=100). Moreover, the He/Con_2aH in the assay with FcγRIIa H [2] was 61.3 % of control He Ab (=100).

B2: GpH7-A5/GpH7-B3 variant Y300_10E/GpL16-k0 (antibody, human IgG1, kappa)
heavy 1: not shown
heavy 2: not shown
light: DIVMTQSPLSLPVTPGEPASISCQASESLVHSNRNTYLHWYLQKPGQSPQLLIYKVSNRFSGVPDRFSGSGSGTDFTLKISRVEAEDVGVYYCSQNTHVPPTFGQGTKVEIERTVAAPSVFIFPPSDEQLKSGTASVVCLLNNFYPREAKVQWKVDNALQSGNSQESVTEQDSKDSTYSLSSTLTLSKADYEKHKVYACEVTHQGLSSPVTKSFNRGEC
notes: as for B1
Consider B2, for which the “He_2aH/2b (IIaH/IIb)” value with FcγRIIa H [1] is 0.73 ratio. The He/Con_2b with FcγRIIb is 134 % of control He Ab (=100). The He/Con_2aH in the assay with FcγRIIa H [2] is 97.2 % of control He Ab (=100).

B3: GpH7-A5/GpH7-B3 variant V266_20W/GpL16-k0 (antibody, human IgG1, kappa)
heavy 1: not shown
heavy 2: not shown
light: DIVMTQSPLSLPVTPGEPASISCQASESLVHSNRNTYLHWYLQKPGQSPQLLIYKVSNRFSGVPDRFSGSGSGTDFTLKISRVEAEDVGVYYCSQNTHVPPTFGQGTKVEIERTVAAPSVFIFPPSDEQLKSGTASVVCLLNNFYPREAKVQWKVDNALQSGNSQESVTEQDSKDSTYSLSSTLTLSKADYEKHKVYACEVTHQGLSSPVTKSFNRGEC
notes: as for B1
Turning to B3, the “He_2aH/2b (IIaH/IIb)” value in the assay with FcγRIIa H [1] was 0.17 ratio. Besides, the He/Con_2b with FcγRIIb was 71.9 % of control He Ab (=100). Besides, in the assay with FcγRIIa H [2], the He/Con_2aH was 12 % of control He Ab (=100).

B4: GpH7-A5/GpH7-B3 variant S267_20W/GpL16-k0 (antibody, human IgG1, kappa)
heavy 1: not shown
heavy 2: not shown
light: DIVMTQSPLSLPVTPGEPASISCQASESLVHSNRNTYLHWYLQKPGQSPQLLIYKVSNRFSGVPDRFSGSGSGTDFTLKISRVEAEDVGVYYCSQNTHVPPTFGQGTKVEIERTVAAPSVFIFPPSDEQLKSGTASVVCLLNNFYPREAKVQWKVDNALQSGNSQESVTEQDSKDSTYSLSSTLTLSKADYEKHKVYACEVTHQGLSSPVTKSFNRGEC
notes: as for B1
On to B4, for which the “He_2aH/2b (IIaH/IIb)” value with FcγRIIa H [1] stood at 0.66 ratio. Moreover, in the assay with FcγRIIb, the He/Con_2b is 57.2 % of control He Ab (=100). For the same molecule, the He/Con_2aH with FcγRIIa H [2] was 37.9 % of control He Ab (=100).

B5: GpH7-A5/GpH7-B3 variant V266_19Q/GpL16-k0 (antibody, human IgG1, kappa)
heavy 1: not shown
heavy 2: not shown
light: DIVMTQSPLSLPVTPGEPASISCQASESLVHSNRNTYLHWYLQKPGQSPQLLIYKVSNRFSGVPDRFSGSGSGTDFTLKISRVEAEDVGVYYCSQNTHVPPTFGQGTKVEIERTVAAPSVFIFPPSDEQLKSGTASVVCLLNNFYPREAKVQWKVDNALQSGNSQESVTEQDSKDSTYSLSSTLTLSKADYEKHKVYACEVTHQGLSSPVTKSFNRGEC
notes: as for B1
As to B5, the “He_2aH/2b (IIaH/IIb)” value with FcγRIIa H [1] was found to be 0.52 ratio. The He/Con_2b with FcγRIIb is 89.2 % of control He Ab (=100). The He/Con_2aH in the assay with FcγRIIa H [2] is 46.4 % of control He Ab (=100).

B6: GpH7-A5/GpH7-B3 variant V266_16H/GpL16-k0 (antibody, human IgG1, kappa)
heavy 1: not shown
heavy 2: not shown
light: DIVMTQSPLSLPVTPGEPASISCQASESLVHSNRNTYLHWYLQKPGQSPQLLIYKVSNRFSGVPDRFSGSGSGTDFTLKISRVEAEDVGVYYCSQNTHVPPTFGQGTKVEIERTVAAPSVFIFPPSDEQLKSGTASVVCLLNNFYPREAKVQWKVDNALQSGNSQESVTEQDSKDSTYSLSSTLTLSKADYEKHKVYACEVTHQGLSSPVTKSFNRGEC
notes: as for B1
For B6, the “He_2aH/2b (IIaH/IIb)” value with FcγRIIa H [1] turned out to be 0.37 ratio. Besides, the He/Con_2b in the assay with FcγRIIb is 57.2 % of control He Ab (=100). Besides, the He/Con_2aH with FcγRIIa H [2] was 21.2 % of control He Ab (=100).

B7: GpH7-A5/GpH7-B3 variant S298_08L/GpL16-k0 (antibody, human IgG1, kappa)
heavy 1: not shown
heavy 2: not shown
light: DIVMTQSPLSLPVTPGEPASISCQASESLVHSNRNTYLHWYLQKPGQSPQLLIYKVSNRFSGVPDRFSGSGSGTDFTLKISRVEAEDVGVYYCSQNTHVPPTFGQGTKVEIERTVAAPSVFIFPPSDEQLKSGTASVVCLLNNFYPREAKVQWKVDNALQSGNSQESVTEQDSKDSTYSLSSTLTLSKADYEKHKVYACEVTHQGLSSPVTKSFNRGEC
notes: as for B1
Take B7: the “He_2aH/2b (IIaH/IIb)” value with FcγRIIa H [1] turned out to be 0.78 ratio. Moreover, in the assay with FcγRIIb, the He/Con_2b was 108 % of control He Ab (=100). For the same molecule, the He/Con_2aH with FcγRIIa H [2] is 85 % of control He Ab (=100).
